Measurements published in patent US20220315908A1, “NOVEL GARDNERELLA ENDOLYSINS AND USES THEREOF” (priority 2019, published 2022).

B1: H2B2: natural Gardnerella prophage endolysin from strain Gv18-4 (protein)
chain: MSKRGIDVSEWQGDIDFNAVKASGVEFVIIRAGYGIGCKDKWFEQNYRKAKTCGLDVGAYWYSYANSGFEAAEEAQSCVNMLSGKSFEYPVYFDLEEKSQLNRGRAFCDSLITGFCNKLESCGYYAGFYTSLSTANNLVSAHVRNRYALWIAQWNTHCSYQGSYGLWQYSSSGSVPGVAGRVDMDYAYVDYPSIIKNVGLNGCKNGGSDQAARTSSIDEVAREVINGAWGNGNERKQRLTSAGYDYASVQNKVNELLGVKACRKSVDEIAREVIRGTWGNGSTRKQRLTQAGYDYDTVQKRVNELL
modifications: EL2_strain_Gv18-4
B2: H3B3: natural Gardnerella prophage endolysin from strain Gv18-4 (protein)
chain: MSKKGIDVSVWQGDIDFNSVKASGVEFVIIRAGYGIGHKDKWFEENYRKAKTAGLDVGSYWYSYASSAGEASEEAQSCVNILSGKSFEYPIYFDLEEKSQLNRGRDFCDSLITSFCNKLEACGYYAGFYTSLSVANNLVSSHVRDRYALWIAQWNTHCSYQGSYGLWQYSSSGSVNGIAGRVDMDYAYVDYPSVIKNAGLNGYQNGGSYTAPQTSSIDEVAREVINGDWGNGNDRKNRLISAGYDYASVQNKVNELLGVKAYRKSVDELAREVIRGTWGNGSMRKHRLTQAGYDYDAVQKRVNELL
modifications: EL3_strain_Gv18-4
B3: H12B12: natural Gardnerella prophage endolysin from strain 3549624 (protein)
chain: MSKKGIDVSVWQGDIDFNAVKASGVEFVIIRAGYGIGHKDKWFEENYRKAKTAGLDVGSYWYSYASSAGEVALEAQSCVNILSGKSFEYPVYFDLEEKSQLNRGRDFCDSLITSFCNKLEACGYYAGFYTSLSVANNLVSSHVRDRYALWIAQWNTHCSYQGSYGLWQYSSSGSVNGIAGRVDMDYAYVDYPSVIKNAGLNGYQNGGSYTAPQTSSIDEVAREVINGDWGNGIERKNRLTSAGYDYTSVQNKVNELLGVKAYRKSVDELAREVIRGTWGNGKTRKQRLTQAGYDYNAVQKRVNELL
modifications: EL12_strain_3549624_non-prophage
B4: H11B11: natural Gardnerella prophage endolysin from strain JCP8017A (protein)
chain: MSKRGIDVSVWQGDIDFNAVKASGVEFVIIRAGYGIGHKDKWFEQNYRKAKTTGLDVGAYWYSYASSAGEAAEEAQSCVNILSGKSFEYPVYFDLEEKSQLNRGRDFCDSLITSFCNKLETYGYYAGFYTSLSVANNLVSSHVRDRYALWIAQWNTHCDYQGSYGLWQYSSSGSVDGIAGRVDMDYTYVDYPSVIKKAGLNGYKNGGSYTAPQTSSIDEVAREVINGDWGNGNERKNRLTSAGYDYTSVQNKVNELLGVKAYRKSVDELAREVIRGTWGNGSTRKQRLTQAGYDYDAVQKRVNELL
modifications: EL11_strain_JCP8017A
notes: natural Gardnerella prophage endolysin from strain JCP8017A
B5: H5B5: natural Gardnerella prophage endolysin from strain JCP7276 (protein)
chain: MSKKGIDVSEWQGDIDFNAVKASGVEFVIIRAGYGIGCKDKWFEQNYRKAKTAGLDVGAYWYSYANSSSEAAEEAQSCANMLSGKSFEYPVYFDLEEKSQLNRGRAFCDSLITGFCSKLEACGYYAGFYTSLSTANNLVSAHVRNRYALWIAQWNTHCSYQGSYGLWQYSSNGSVPGVAGRVDMDYAYKDYPSIIKNAGLNGCKNGGSDQAARTSSIDEVAREVINGAWGNGNERKQRLTQAGYDYTSVQNKVNKLLGVKACRKSVDELAREVIRGTWGNGNERKNRLTQAGYDYDTVQKRVNELL
modifications: EL5_strain_JCP7276
notes: natural Gardnerella prophage endolysin from strain JCP7276
B6: H7B7: natural Gardnerella prophage endolysin from strain AMD (protein)
chain: MSKKGIDVSEWQGDIDFNAVKASGVEFVIIRAGYGIGCKDKWFEQNYRKAKTAGLDVGAYWYSYANSASEAAEEAQSCANMLSGKSFEYPVYFDLEEKSQLNRGRAFCDSLITSFCSKLETYGYYAGFYTSLSTANNLVSSHVRNRYALWIAQWNTHCSYQGSYGLWQYSSSGSVPGVAGRVDMDYAYKDYPSIIKNAGLNGCKNGGSDQAARTSSIDEVAREVINGAWGNGNERKQRLTQAGYDYTSVQNKVNKLLGVKACRKSVDELAREVIRGTWGNGNERKNRLTQAGYDYDTVQKRVNELL
modifications: EL7_strain_AMD
notes: natural Gardnerella prophage endolysin from strain AMD
B7: H1B1: natural Gardnerella prophage endolysin from strain HMP9231 (protein)
chain: MSKKGIDVSEWQGDIDFNAVKASGVEFVIIRAGYGIGCKDKWFEQNYRKAKTAGLDVGAYWYSYANSGFEAAEEAQSLMNMLSGKSFEYPVYFDLEEKSQLNRGRAFCDSLITSFCNKLEACGYYAGFYTSLSTANNLVSAHVRNRYALWIAQWNTHCNYQGSYGLWQYSSNGSVPGVAGRVDMDYAYVDYPSIIKNAGLNGCKNGGSDQAARTSSIDEVAREVINGAWGNGSTRKQRLTSAGYDYASVQNKVNELLGVKACRKSVDELAREVIRGAWGNGSTRKQRLAQAGYDYDTVQKRVNELL
modifications: EL1_strain_HMP9231
notes: natural Gardnerella prophage endolysin from strain HMP9231
B8: H4B4: natural Gardnerella prophage endolysin from strain Gv5-1 (protein)
chain: MSKKGIDVSEWQGDIDFNAVKASGVEFVIIRAGYGIGCKDKWFEQNYRKAKTCGLDVGAYWYSYANSGFEAAEEAQSCVNMLSGKSFEYPVYFDLEEKSQLNRGRAFCDSLITSFCSKLETYGYYAGFYTSLSVVNNLVSAHVRDRYALWIAQWNTHCSYQGSYGLWQYSSSGSVPGVAGRVDMDYAYVDYPSIIKNVGLNGCKNGGSDQATRTSSIDEVAREVINGAWGNGNERKQRLTSAGYDYASVQNKVNKLLGVKAYRKSVDELAREVIRGTWGNGNERKQRLAQAGYDYDTVQKRVNELL
modifications: EL4_strain_Gv5-1
B9: H10B10: natural Gardnerella prophage endolysin from strain G30-4 (protein)
chain: MSKRGIDVSVWQGDIDFNAVKASGVEFVIIRAGYGIGHKDKWFEENYRKAKTVGLDVGAYWYSYASSAGEASEEAQSCVNILSGKSFEYPVYFDLEEKSQLNRGRDFCDSLITSFCNKLEACGYYAGFYTSLSVANNLVSSHVRDRYALWIAQWNTHCSYQGSYGLWQYSSSGSVNGIAGRVDMDYAYVDYPSVIKNAGLNGYKNGGSYTAPQISSIDEVAREVINGDWGNGNERKQRLTSAGYDYASVQNKVNELLGVKAYRKSVDELAREVIRGTWGNGSTRKQRLTQAGYDYNAVQKRVNELL
modifications: EL10_strain_G30-4

These molecules were tested on G. piotii strain Gv_17 (assay: Quantitative reduction in viable CFU assay in bacterial suspension). Settings: 5 hours, pH 5.0, anaerobic, 10 ul endolysin (0.2 mg/ml where possible) + 90 ul 5e7 CFU/ml, average of triplicate.
Assay type: cell-based, Gardnerella piotii
Method: The lysis activity on the four main species of Gardnerella of 91 constructs (natural and domain-swapped endolysins) was quantitatively assessed using the method described in Reference Example 2. Briefly, 90 ul 5e7 CFU/ml of the indicated strain were incubated for 5 hours at pH 5.0 under anaerobic conditions with 10 ul endolysin (concentration adjusted to 0.2 mg/ml where possible, see Table 4).
The results are shown in FIGS. 8A to 8D together with Tables 5A to 5C. In FIGS. 8A to 8D, the logarithmic Y axis depicts the count of surviving cells. The dotted line indicates the limit of detection (LOD) given by plating of 2 ul of the reaction mix (500 CFU/ml). Each combination of the natural 10 H-domains and the natural 9 B-regions was assessed, including the natural endolysins (H1B1, H2B2, H3B3, etc.), plus H6B6. […] The activity of each construct was measured on each of the 4 main Gardnerella species G. vaginalis sensu stricto, G. leopoldii, G. piotii, and G. swidsinkii. All conditions have been measured in triplicate. The survival after 5 hours incubation at pH 5.0 under anaerobic conditions with endolysins vs. buffer was measured by quantitative plating. The values indicate the log 10 of the ratio of surviving CFU for treated vs. untreated cells. The average of the triplicate measurements is used. In tables 5A and 5B, high negative log 10 values, e.g. −6.7, −5.5, −4.8 etc. are associated with high enzymatic activity, while log 10 values closer to zero or even positive log 10 values are associated with low or no enzymatic activity. […] Inversely, a reduction value of −3.7 means a 10^3.7-fold (=5012-fold) reduction of viable CFU in treated sample vs. untreated control.
Gardnerella cells were recovered from cryo stock by plating on Chocolate Agar plates (Beckton Dickinson) and incubating for 48 h at 37° C. under anaerobic conditions. For Lactobacilli, BD Schaedler/5% sheep blood agar plates were used instead. Colonies were scraped from the plate, resuspended in Hardy Broth or NYC-III-HS-5.0 at the pH as indicated, and the suspension adjusted to OD (610 or 620 nm as indicated) 0.1. It has to be noted that two Tecan Microplate readers, having respectively a 610 nm or 620 nm filter, have been used interchangeably in the experiments. Although it doesn't make any difference for the experiments, the exact wavelength used is specified in each example. If not stated otherwise, 90 μl cell suspension was mixed with 10 μl endolysin solution, for the different species/endolysin combinations, in 384-well plates. OD(610-620 nm as indicated) was measured at the beginning of the reaction and at the end, either as two measurement points or as a continuous kinetic in a Tecan F200 Microplate reader. The reactions were incubated for 5 hours (or otherwise the time indicated) at 37° C. under anaerobic, micro-aerophilic or aerobic conditions as indicated. Anaerobic conditions intend that oxygen was fully depleted from the container in which the bacteria are incubated (Sigma-Aldrich anaerobic jar or sealable lunch box) with an anaerobic sachet, and the lack of oxygen was confirmed with an anaerobic indicator inside the container. Where micro-aerophilic conditions are indicated, the candle-in-a-jar method was used (tea candle lit in an appropriate sealable container, which reduces oxygen levels until the flame dies out). Then each well was diluted in 5 steps (10^−1 to 10^−5) using 96-U-well bottom plates, and 2 μl of each dilution of each reaction mix are plated on BD Chocolate agar plates or BD Schaedler/5% sheep blood agar plates for Gardnerella and Lactobacilli, respectively, for detecting and quantifying surviving CFU. Detection plates were incubated at 37° C. for 48 hours under anaerobic conditions.
With B1 the “log 10 of the ratio of surviving CFU for treated vs. untreated cells” value (shortened to “log 10 of the ratio of surviving CFU”) was −2.5 log 10.
In the case of B2, the “log 10 of the ratio of surviving CFU” value is reported as −1.5 log 10.
B3 was tested, and the “log 10 of the ratio of surviving CFU” value was −0.3 log 10.
B4 was tested, and the “log 10 of the ratio of surviving CFU” value was −1.0 log 10.
B5 was tested, and the “log 10 of the ratio of surviving CFU” value was −0.1 log 10.
For B6, the “log 10 of the ratio of surviving CFU” value was −1.2 log 10.
B7 was tested, and the “log 10 of the ratio of surviving CFU” value was −0.9 log 10.
With B8 the “log 10 of the ratio of surviving CFU” value was −0.4 log 10.
B9 was tested, and the “log 10 of the ratio of surviving CFU” value was −2.4 log 10.
